The source of these data is patent US20220154181A1.

Series [1] concerns T1, NHS-Rhodamine labelled recombinant Tma17p (γ-subunit).
T1 sequence: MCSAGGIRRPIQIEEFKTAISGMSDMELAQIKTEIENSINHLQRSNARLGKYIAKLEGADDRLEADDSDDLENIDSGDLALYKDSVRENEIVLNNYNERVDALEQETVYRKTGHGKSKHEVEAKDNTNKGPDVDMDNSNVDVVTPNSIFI
Nature of the series: titration of NHS-Rhodamine labelled γ-subunit against ΔTma17p-FAS, native agarose gel, fluorescence of FAS-bound Tma17p quantified.

Series [2] concerns the target Saccharomyces cerevisiae type I fatty acid synthase (α6β6, 2.6 MDa) without the γ-subunit (Saccharomyces cerevisiae) (UniProt P19097). In words: cell-based or functional assay.
Sequence of UniProt P19097 (P19097 whole entry, chain 1 of 2): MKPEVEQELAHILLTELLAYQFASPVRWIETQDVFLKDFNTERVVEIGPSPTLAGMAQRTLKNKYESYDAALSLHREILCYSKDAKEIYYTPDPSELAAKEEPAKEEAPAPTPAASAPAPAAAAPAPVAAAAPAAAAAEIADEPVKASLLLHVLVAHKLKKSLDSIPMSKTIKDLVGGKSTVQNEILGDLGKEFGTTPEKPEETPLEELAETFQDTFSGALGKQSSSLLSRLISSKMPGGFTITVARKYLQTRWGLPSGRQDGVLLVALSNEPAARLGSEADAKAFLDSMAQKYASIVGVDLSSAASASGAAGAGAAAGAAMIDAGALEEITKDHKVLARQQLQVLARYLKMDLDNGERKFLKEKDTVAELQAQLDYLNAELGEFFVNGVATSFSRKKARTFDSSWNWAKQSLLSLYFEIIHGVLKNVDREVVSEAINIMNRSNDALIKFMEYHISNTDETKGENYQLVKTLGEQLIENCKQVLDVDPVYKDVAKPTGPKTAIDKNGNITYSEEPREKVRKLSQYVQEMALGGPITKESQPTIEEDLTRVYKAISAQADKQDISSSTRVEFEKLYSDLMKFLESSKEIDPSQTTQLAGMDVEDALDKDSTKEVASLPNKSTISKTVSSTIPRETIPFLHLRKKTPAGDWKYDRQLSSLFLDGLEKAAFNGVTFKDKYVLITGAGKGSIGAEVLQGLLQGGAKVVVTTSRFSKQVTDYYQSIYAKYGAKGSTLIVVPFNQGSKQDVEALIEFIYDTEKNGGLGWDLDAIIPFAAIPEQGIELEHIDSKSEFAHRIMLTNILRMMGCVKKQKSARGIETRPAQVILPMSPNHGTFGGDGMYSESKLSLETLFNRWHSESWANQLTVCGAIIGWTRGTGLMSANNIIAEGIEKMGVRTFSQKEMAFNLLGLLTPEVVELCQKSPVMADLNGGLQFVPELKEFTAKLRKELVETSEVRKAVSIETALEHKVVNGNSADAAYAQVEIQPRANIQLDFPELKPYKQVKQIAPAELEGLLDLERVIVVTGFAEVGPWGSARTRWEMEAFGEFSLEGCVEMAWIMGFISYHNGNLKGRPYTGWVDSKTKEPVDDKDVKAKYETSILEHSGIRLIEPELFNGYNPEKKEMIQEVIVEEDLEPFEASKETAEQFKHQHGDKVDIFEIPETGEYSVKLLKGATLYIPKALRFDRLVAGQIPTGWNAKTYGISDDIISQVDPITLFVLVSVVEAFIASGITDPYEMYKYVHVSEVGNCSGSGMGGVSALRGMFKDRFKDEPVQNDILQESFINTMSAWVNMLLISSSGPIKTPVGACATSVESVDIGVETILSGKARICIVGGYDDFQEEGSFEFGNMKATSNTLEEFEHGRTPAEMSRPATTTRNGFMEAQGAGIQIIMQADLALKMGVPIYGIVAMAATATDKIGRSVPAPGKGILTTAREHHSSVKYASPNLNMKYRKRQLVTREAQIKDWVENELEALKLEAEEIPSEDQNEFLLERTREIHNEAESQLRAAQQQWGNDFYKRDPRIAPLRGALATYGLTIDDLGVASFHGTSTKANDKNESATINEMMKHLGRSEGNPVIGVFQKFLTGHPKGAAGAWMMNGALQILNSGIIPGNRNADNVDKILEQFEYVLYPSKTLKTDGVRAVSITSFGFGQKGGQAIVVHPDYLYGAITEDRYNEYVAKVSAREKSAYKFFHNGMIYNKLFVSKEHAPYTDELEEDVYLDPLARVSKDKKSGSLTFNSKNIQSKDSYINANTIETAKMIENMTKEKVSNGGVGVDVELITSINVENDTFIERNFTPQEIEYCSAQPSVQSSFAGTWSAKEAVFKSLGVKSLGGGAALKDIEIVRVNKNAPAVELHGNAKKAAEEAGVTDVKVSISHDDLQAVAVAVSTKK
Sequence of UniProt P19097 (P07149 whole entry, chain 2 of 2, further chain): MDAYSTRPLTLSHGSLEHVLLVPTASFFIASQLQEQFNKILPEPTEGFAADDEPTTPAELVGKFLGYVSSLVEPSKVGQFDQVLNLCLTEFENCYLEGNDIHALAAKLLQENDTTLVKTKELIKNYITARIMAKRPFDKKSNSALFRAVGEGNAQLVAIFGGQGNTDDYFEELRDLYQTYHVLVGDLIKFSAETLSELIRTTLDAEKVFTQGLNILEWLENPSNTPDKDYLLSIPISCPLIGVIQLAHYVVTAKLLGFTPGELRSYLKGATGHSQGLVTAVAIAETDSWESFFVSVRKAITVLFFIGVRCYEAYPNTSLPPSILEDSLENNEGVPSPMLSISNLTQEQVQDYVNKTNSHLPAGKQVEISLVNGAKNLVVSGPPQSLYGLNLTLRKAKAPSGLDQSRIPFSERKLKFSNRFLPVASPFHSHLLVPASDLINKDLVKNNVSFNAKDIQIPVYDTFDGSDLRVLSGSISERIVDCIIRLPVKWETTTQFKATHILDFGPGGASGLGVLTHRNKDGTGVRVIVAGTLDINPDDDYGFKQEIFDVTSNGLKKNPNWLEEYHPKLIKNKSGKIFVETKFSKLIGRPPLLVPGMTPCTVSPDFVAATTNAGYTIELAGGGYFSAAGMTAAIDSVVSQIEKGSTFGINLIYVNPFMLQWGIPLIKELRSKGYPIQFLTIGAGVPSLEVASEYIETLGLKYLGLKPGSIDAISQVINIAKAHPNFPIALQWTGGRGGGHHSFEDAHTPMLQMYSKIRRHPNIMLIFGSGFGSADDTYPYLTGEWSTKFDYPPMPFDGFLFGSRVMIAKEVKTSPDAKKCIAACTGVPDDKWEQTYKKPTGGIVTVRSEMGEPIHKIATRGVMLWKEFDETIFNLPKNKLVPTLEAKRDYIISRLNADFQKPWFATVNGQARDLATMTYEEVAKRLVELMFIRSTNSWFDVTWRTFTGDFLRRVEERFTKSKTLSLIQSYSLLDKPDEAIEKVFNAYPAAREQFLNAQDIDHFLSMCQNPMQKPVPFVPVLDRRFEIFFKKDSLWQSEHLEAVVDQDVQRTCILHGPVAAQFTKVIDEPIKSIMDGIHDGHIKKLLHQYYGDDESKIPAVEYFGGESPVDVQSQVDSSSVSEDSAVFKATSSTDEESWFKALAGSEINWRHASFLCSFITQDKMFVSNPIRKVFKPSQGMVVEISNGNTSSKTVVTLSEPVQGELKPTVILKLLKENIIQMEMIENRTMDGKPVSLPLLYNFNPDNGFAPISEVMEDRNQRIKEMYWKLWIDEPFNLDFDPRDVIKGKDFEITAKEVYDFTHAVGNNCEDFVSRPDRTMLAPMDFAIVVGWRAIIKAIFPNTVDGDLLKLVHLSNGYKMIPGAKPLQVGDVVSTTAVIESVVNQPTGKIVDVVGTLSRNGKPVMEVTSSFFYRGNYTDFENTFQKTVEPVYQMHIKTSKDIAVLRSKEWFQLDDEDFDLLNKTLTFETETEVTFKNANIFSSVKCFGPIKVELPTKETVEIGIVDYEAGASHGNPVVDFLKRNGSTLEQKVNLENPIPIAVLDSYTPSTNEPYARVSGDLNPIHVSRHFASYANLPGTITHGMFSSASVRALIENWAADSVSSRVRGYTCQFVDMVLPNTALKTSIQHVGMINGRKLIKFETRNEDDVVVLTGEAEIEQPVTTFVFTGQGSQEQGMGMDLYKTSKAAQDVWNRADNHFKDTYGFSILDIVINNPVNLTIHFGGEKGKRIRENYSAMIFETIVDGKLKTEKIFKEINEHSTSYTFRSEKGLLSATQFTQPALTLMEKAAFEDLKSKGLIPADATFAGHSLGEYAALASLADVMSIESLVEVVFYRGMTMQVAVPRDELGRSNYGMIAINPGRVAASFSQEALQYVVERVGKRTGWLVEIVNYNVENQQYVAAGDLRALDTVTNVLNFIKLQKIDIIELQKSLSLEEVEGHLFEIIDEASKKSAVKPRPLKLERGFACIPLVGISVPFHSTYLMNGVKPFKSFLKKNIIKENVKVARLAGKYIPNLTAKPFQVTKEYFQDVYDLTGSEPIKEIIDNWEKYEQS

“Saccharomyces cerevisiae type I fatty acid synthase (α6β6, 2.6 MDa) without the γ-subunit”: the “K0.5 (Hill equation)” value in series [1] is “K0.5=2.1±0.2 µM”.

B1: Tma17p, the gamma-subunit of the yeast fatty acid synthase (TMA 17 molecule from Saccharomyces cerevisiae) (protein)
chain: T1 sequence
For B1, in series [2], the KMapp for NADPH, steady-state kinetics of the FAS holoenzyme (saturating γ-subunit) came out at 155 µM; the fold decrease of affinity for acetyl-CoA, steady-state kinetics stood at 2 fold; the fold decrease of affinity for malonyl-CoA, steady-state kinetics worked out at 4 fold; the fold reduction in the binding affinity for NADPH, steady-state kinetics stood at 15 fold. Moreover, in series [2], the percent of selected cryo-EM particles in the rotated state, at a 6-fold excess of the γ-subunit was found to be 88% and the percent of selected cryo-EM particles in the rotated state, at a 12-fold molar excess of the γ-subunit stood at 95%.
